Assay results published in paper doi:10.1101/2024.12.03.626679, “Structure of the SMYD2-PARP1 Complex Reveals Both Productive and Allosteric Modes of Peptide Binding” (bioRxiv, 2024).

Columns and labels:
SMYD2-L351A/W356A = SMYD2-L351A/W356A (human, UniProt Q9NRG4 1-433, L351A | W356A); assay: cell-based or functional assay
[1] = target: T1, Full-length human SMYD2 (residues 1-433), wild type (human, UniProt Q9NRG4 1-433); assay: ITC; NanoITC SV, 27°C, 25 mM Tris pH 7.5, 50 mM NaCl; 40 μM SMYD2 in the cell, 631 μM PARP1 peptide in the syringe, 16 injections of 15 μL; one-site, two-site and binding polynomial models; details: both partners purified
T1 construct: SMYD2, human, full length, residues 1-433; Tag cut off with yeast SUMO Protease 1, native N-terminus; Crystals held AdoHcy; also called SMYD2-WT; wild-type SMYD2; not shown: 6xHis-SUMO, N-terminal, cleaved
T1 sequence (Q9NRG4 whole entry, the tested form may be a part): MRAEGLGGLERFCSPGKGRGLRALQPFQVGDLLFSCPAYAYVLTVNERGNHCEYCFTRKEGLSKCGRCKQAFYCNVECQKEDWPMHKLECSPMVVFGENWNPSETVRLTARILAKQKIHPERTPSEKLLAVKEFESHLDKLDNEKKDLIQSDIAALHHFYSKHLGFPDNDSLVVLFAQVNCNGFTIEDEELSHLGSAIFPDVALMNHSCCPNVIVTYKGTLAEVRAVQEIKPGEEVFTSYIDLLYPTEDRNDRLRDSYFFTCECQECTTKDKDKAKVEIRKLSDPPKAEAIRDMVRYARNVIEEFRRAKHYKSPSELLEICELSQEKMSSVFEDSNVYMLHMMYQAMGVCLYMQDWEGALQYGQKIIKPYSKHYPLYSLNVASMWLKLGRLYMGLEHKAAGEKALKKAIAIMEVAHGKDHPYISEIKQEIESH

SMYD2-L351A/W356A, sequence (Q9NRG4 whole entry L351A/W356A, the tested form may be a part): as the sequence (Q9NRG4 whole entry, the tested form may be a part) above, with L351A, W356A counted along it

B1: PARP1 peptide (13-residue synthetic peptide, human PARP1 residues 522-534) (peptide)
peptide: RMKLTLKGGAAVD
notes: PARP1, human, residues 522-534, holds the target lysine Lys528; also called Lys528-containing PARP1 peptide; source: synthetic peptide (CPC Scientific)
Q: Which “KM of steady-state methyltransferase kinetics (MTase-Glo) with the PARP1 peptide as substrate, against wild-type SMYD2” value (SMYD2-L351A/W356A) does the source give for B1 here?
A: 4 fold

Q: And the “dH1 (binding polynomial)” value [1]?
A: -1 kcal/mol

Q: What about the “dH2 (binding polynomial)” value [1] of the same binder?
A: -1.72 kcal/mol

Q: What about the “stoichiometry N” value [1] of the same binder?
A: 2
